# From patent US20050019306
# Target: p48-VP16 TAD (Homo sapiens / Herpes simplex virus) (UniProt Q00978)
# Assay: cell_activity
# Details: 293T ISRE-Luc reporter
# UniProt Q00978, sequence (Q00978 1-393, tags or fused parts left off): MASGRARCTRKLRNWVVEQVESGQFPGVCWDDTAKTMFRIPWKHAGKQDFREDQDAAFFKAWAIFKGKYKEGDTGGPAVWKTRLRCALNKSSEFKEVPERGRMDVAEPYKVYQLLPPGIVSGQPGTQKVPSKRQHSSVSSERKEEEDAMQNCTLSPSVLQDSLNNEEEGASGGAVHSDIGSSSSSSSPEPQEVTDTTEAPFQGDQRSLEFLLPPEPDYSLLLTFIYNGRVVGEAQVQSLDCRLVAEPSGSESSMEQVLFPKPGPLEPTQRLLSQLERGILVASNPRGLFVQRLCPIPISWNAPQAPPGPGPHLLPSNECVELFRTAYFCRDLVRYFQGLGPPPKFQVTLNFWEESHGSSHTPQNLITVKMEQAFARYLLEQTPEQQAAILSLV
substance,measurement,value
5x ISG54 ISRE luciferase reporter,activity (fold relative to p48-S2C),3
